Starred links: 1 amine or outer side, 2 acyl side, 3 side chain; linkers in the order of their positions; H or OH if unused. Non-standard residues stand in square brackets, D forms with d. pY = N[C@@H](Cc1ccc(OP(=O)(O)O)cc1)C(=O)O; Cysteamide = C(CS[*:3])N[*:1]; Dap = NC[C@H](N)C(=O)O
Target: GST-Lck-SH2 (UniProt P06239)
Assay: fluorescence change on Src-catalysed phosphorylation in presence of GST-Lck-SH2 (1.25 µM peptide, 5 µM Lck-SH2, 12 nM Src, 1 mM ATP)

GST-Lck-SH2, sequence (P06239 127-224): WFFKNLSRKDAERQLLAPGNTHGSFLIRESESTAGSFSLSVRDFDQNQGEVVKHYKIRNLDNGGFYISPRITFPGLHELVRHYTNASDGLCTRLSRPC

B1: Src-phosphorylated library peptide with Dap-5 (dapoxyl on Dap) at P+1 of Ac-Glu-Glu-Glu-Ile-Tyr-Gly-Glu-Ile-Glu-Ala (peptide)
peptide: Ac-EEEI[pY][Dap](dapoxyl)EIEA-Cysteamide
modifications: not fully specified
  Fold change in fluorescence intensity: 0.6 fold
